Reference: paper PMC9482650, “Quantitative fragmentomics allow affinity mapping of interactomes” (Nature Communications, 2022)

T1: APBA2_1, Q99767
T1 sequence (Q99767 563-664, limits assumed, looked up): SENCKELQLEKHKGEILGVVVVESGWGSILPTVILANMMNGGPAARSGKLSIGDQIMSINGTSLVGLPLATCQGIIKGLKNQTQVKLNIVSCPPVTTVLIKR

T2: APBA2_2, Q99767
T2 sequence (Q99767 654-744, limits assumed, looked up): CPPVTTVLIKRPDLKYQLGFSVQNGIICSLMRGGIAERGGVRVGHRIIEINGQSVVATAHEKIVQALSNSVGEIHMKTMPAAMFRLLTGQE

T3: ARHGAP21, Q5T5U3
T3 sequence (Q5T5U3 45-169, limits assumed, looked up): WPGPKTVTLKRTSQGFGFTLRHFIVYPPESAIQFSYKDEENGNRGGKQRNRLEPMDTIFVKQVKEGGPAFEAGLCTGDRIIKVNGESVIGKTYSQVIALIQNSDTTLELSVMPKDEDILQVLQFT

T4: DFNB31_2, Q9P202
T4 sequence (Q9P202 274-371, limits assumed, looked up): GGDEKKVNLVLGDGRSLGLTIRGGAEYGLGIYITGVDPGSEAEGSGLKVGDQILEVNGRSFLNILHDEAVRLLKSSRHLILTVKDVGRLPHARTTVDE

T5: DLG3_1, Q92796
T5 sequence (Q92796 125-227, limits assumed, looked up): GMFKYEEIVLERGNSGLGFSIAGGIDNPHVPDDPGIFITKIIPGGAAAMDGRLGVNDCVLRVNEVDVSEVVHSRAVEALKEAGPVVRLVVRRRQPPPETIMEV

T6: GRIP1_7, Q9Y3R0
T6 sequence (Q9Y3R0 999-1096, limits assumed, looked up): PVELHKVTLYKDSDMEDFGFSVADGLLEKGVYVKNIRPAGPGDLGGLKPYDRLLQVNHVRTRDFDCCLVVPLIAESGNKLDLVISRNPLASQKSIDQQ

T7: LRRC7, Q96NW7
T7 sequence (Q96NW7 1440-1537, limits assumed, looked up): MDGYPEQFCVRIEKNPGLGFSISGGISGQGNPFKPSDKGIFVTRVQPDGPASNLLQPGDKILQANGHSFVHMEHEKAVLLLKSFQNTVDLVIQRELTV

T8: NHERF3_1, Q5T2W1
T8 sequence (Q5T2W1 4-100, limits assumed, looked up): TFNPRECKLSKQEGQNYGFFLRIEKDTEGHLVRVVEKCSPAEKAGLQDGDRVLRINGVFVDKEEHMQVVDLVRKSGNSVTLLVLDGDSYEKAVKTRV

T9: NHERF3_3, Q5T2W1
T9 sequence (Q5T2W1 238-333, limits assumed, looked up): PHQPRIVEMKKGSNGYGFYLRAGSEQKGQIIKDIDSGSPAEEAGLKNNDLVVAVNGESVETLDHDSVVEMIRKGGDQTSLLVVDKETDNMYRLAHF

T10: NHERF3_4, Q5T2W1
T10 sequence (Q5T2W1 373-468, limits assumed, looked up): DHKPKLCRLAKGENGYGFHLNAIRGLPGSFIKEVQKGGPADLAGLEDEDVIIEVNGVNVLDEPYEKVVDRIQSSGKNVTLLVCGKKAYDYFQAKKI

T11: PTPN13_1, Q12923
T11 sequence (Q12923 1088-1188, limits assumed, looked up): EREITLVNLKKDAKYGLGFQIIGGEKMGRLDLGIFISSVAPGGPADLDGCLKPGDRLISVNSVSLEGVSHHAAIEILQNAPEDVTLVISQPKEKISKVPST

T12: SIPA1L2, Q9P2F8
T12 sequence (Q9P2F8 945-1036, limits assumed, looked up): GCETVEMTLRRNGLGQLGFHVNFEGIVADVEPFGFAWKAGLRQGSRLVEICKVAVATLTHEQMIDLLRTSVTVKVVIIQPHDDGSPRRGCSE

B1: SLC22A11, Q9NSA0 (peptide)
chain: EAVTVESTSL
B2: KCNB1, Q14721 (peptide)
chain: AHGSTRDQSI
B3: IGSF5, Q9NSI5 (peptide)
chain: PEKVSNTTVV
B4: DFNB31, Q9P202 (peptide)
chain: FLVTEFNVML

Legend:
Experiment in all cases: holdup assay
Set-up in all cases: key: below the threshold = too weak to quantify, mostly under pKd 3.1 to 4
Details in all cases: plain residues with an end cap or a label only (N-terminal biotin on a linker: ado-ado)
[1] = biological target: T1, APBA2_1, Q99767
[2] = biological target: T2, APBA2_2, Q99767
[3] = biological target: T3, ARHGAP21, Q5T5U3
[4] = biological target: T4, DFNB31_2, Q9P202
[5] = biological target: DLG1_2, Q12959
[6] = biological target: DLG1_3, Q12959
[7] = biological target: DLG2_2, Q15700
[8] = biological target: T5, DLG3_1, Q92796
[9] = biological target: FRMPD2_1, Q68DX3
[10] = biological target: FRMPD4, Q14CM0
[11] = biological target: GIPC2, Q8TF65
[12] = biological target: GRID2IP_1, A4D2P6
[13] = biological target: T6, GRIP1_7, Q9Y3R0
[14] = biological target: GRIP2_7, Q9C0E4
[15] = biological target: HTRA2, O43464
[16] = biological target: IL16_4, Q14005
[17] = biological target: Inadl_2, Q8NI35
[18] = biological target: Inadl_5, Q8NI35
[19] = biological target: T7, LRRC7, Q96NW7
[20] = biological target: MAGI2_2, Q86UL8
[21] = biological target: MAGI2_3, Q86UL8
[22] = biological target: T8, NHERF3_1, Q5T2W1
[23] = biological target: T9, NHERF3_3, Q5T2W1
[24] = biological target: T10, NHERF3_4, Q5T2W1
[25] = biological target: T11, PTPN13_1, Q12923
[26] = biological target: T12, SIPA1L2, Q9P2F8

Inadl_2, Q8NI35, sequence (Q8NI35 238-335): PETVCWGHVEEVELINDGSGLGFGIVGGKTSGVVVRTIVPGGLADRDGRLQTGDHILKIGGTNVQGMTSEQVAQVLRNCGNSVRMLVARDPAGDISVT
GRIP2_7, Q9C0E4, sequence (Q9C0E4 934-1023): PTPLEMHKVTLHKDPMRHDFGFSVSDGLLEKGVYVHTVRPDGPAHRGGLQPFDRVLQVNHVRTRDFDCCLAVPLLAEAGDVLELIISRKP
FRMPD4, Q14CM0, sequence (Q14CM0 67-160): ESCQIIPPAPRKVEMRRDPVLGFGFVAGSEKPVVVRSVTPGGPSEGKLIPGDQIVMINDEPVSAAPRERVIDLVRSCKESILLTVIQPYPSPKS
FRMPD2_1, Q68DX3, sequence (Q68DX3 770-861): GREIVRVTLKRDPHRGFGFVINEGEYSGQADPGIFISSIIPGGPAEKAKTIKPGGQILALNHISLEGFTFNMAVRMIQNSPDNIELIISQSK
DLG2_2, Q15700, sequence (Q15700 189-283): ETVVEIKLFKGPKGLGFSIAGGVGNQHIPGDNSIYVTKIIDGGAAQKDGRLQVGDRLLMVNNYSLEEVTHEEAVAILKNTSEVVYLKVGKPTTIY
DLG1_3, Q12959, sequence (Q12959 457-571): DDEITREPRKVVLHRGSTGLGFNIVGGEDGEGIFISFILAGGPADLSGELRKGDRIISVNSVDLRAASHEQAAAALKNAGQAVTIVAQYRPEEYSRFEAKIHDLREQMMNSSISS
IL16_4, Q14005, sequence (Q14005 1229-1329): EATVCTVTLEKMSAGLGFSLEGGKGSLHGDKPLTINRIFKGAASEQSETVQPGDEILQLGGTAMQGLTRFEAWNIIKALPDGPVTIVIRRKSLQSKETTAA
MAGI2_3, Q86UL8, sequence (Q86UL8 600-682): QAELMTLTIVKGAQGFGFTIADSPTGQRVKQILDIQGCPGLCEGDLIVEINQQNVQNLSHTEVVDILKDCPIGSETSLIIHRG
HTRA2, O43464, sequence (O43464 355-458): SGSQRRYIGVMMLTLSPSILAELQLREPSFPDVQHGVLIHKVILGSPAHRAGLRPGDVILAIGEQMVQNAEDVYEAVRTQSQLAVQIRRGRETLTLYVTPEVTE
MAGI2_2, Q86UL8, sequence (Q86UL8 410-522): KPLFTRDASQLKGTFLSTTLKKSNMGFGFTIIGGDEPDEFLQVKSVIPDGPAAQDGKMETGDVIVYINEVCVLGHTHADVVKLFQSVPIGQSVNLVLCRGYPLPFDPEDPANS
GIPC2, Q8TF65, sequence (Q8TF65 112-203): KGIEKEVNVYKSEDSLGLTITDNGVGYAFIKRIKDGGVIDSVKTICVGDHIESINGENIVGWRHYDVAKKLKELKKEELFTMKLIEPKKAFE
GRID2IP_1, A4D2P6, sequence (A4D2P6 1-87): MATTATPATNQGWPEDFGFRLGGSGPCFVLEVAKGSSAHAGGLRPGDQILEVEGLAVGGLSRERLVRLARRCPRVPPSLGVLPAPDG
Inadl_5, Q8NI35, sequence (Q8NI35 673-780): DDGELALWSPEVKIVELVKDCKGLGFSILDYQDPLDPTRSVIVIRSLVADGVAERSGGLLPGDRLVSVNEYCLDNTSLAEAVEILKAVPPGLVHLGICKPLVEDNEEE
DLG1_2, Q12959, sequence (Q12959 314-412): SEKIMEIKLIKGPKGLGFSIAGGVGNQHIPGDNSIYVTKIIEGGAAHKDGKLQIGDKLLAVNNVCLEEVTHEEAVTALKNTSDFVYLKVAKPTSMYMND

Binder | pKd [1] | pKd [2] | pKd [3] | pKd [4] | pKd [5] | pKd [6] | pKd [7] | pKd [8] | pKd [9] | pKd [10] | pKd [11] | pKd [12] | pKd [13] | pKd [14] | pKd [15] | pKd [16] | pKd [17] | pKd [18] | pKd [19] | pKd [20] | further results
B1 | 3.54 | below the threshold | 4.12 | below the threshold | below the threshold | below the threshold | below the threshold | below the threshold | below the threshold | 4.23 | below the threshold | below the threshold | below the threshold | below the threshold | below the threshold | below the threshold | below the threshold | below the threshold | below the threshold | below the threshold | pKd [21]: below the threshold; pKd [22]: 6.1; pKd [23]: below the threshold; pKd [24]: 4.92; pKd [25]: below the threshold; pKd [26]: below the threshold
B2 | below the threshold | below the threshold | below the threshold | below the threshold | below the threshold | 3.93 | 3.86 | 3.68 | 3.65 | below the threshold | below the threshold | below the threshold | 3.48 | below the threshold | below the threshold | below the threshold | below the threshold | below the threshold | below the threshold | below the threshold | pKd [21]: below the threshold; pKd [22]: below the threshold; pKd [23]: below the threshold; pKd [24]: below the threshold; pKd [25]: below the threshold; pKd [26]: 3.58
B3 | below the threshold | below the threshold | below the threshold | below the threshold | 4.64 | below the threshold | 4.44 | 3.83 | below the threshold | below the threshold | below the threshold | below the threshold | below the threshold | below the threshold | below the threshold | 3.51 | below the threshold | below the threshold | below the threshold | 4.13 | pKd [21]: 3.51; pKd [22]: below the threshold; pKd [23]: below the threshold; pKd [24]: below the threshold; pKd [25]: below the threshold; pKd [26]: below the threshold
B4 | below the threshold | below the threshold | 4.61 | below the threshold | below the threshold | below the threshold | below the threshold | below the threshold | below the threshold | 4.9 | below the threshold | below the threshold | below the threshold | below the threshold | below the threshold | below the threshold | below the threshold | below the threshold | 3.64 | below the threshold | pKd [21]: below the threshold; pKd [22]: 4.88; pKd [23]: below the threshold; pKd [24]: 4.55; pKd [25]: below the threshold; pKd [26]: below the threshold
